Test results reported in US20130018176A1, “METHODS OF PRODUCING HYBRIDOMAS AND MONOCLONAL ANTIBODIES AND ANTIBODIES PRODUCED THEREBY” (AMGEN INC., priority 2007, published 2013).

How the values were obtained:
rcyno hepcidin = assay: BIAcore solution equilibrium binding analysis on immobilized antibody; design: species or system cyno
Description: The following example describes KinExA and BIAcore binding analysis for various antibodies to recombinant cyno hepcidin (rcyno).
B) BIAcore Solution Equilibrium Binding Analysis for mAb R9 and Ab43 Binding to rcynoHepc.
Antibody surface immobilization: antibodies R9 and Ab43 were immobilized on a CM5 chip. The immobilization was performed at a flow rate 10 uL/min of running buffer (DPBS: Dulbecco's Phosphate Buffer Saline1X, GIBCO 14190, with 0.005% BIAcore surfactant P-20) according to manufacturer's instructions. The carboxylated matrix of the sensor chip was first activated with a 100 ul injection of 1:1 mixture of EDC (75 mg/mL N-ethyl-N-(dimethylamine-propyl)carbodiimide in water, from BIAcore) and NHS (11.5 mg/mL N-hydroxysuccinimide in water, from BIAcore). 180 ul of antibodies (−20 ug/ml in 10 mM Na-acetate pH4.0) was injected to immobilize onto the sensor chip at 30 uL/min. […]
BIAcore analysis: Fixed concentrations of rcynoHepc were incubated with various concentrations of mAb R9 and Ab43 at room temperature for several hours before run through the immobilized antibody surfaces. […] The equilibrium dissociation constant (KD) was calculated from nonlinear regression analysis of the competition curves using a one-curve one-site homogeneous binding model (KinEx™ software, Sapidyne Instruments Inc., Boise Id.).

[1] = target: T1, mature human hepcidin (SEQ ID NO: 9) (Homo sapiens, UniProt P81172); assay: Epitope specificity: antibody binding to immobilized hepcidin surface after pre-complex with hepcidin variants (BIAcore); conditions: interpretation of Table 6
T1 construct: made in house; host or cells: recombinant
Description: (§1) The epitope specificity of anti-human hepcidin antibodies was evaluated by assessing ability of the antibodies to bind to mature human hepcidin (SEQ ID NO: 9) after pre-complex formation with different hepcidin variants.
(§2) Recombinant hepcidin was immobilized on a CM5 chip according to manufacturer's instructions at a flow rate 10 μL/min of running buffer (DPBS: Dulbecco's Phosphate Buffer Saline1X, GIBCO 14190, with 0.005% BIAcore surfactant P-20). The carboxylated matrix of the sensor chip was first activated with a 100 μL injection of 1:1 mixture of EDC (75 mg/mL N-ethyl-N-(dimethylamine-propyl)carbodiimide in water, from Biacore) and NHS (11.5 mg/mL N-hydroxysuccinimide in water, from Biacore). 180 μL of rhHepc (˜20 μg/ml in 10 mM Na-acetate pH4.0) was injected to immobilize onto the sensor chip at 30 μL/min. The excess reactive groups of the sensor chip were deactivated with an injection of 100 μL of ethanolamine (1.0M, from Biacore).
(§3) Forms of hepcidin used for the pre-complex were: correctly folded hepcidin as a positive control, the C1-C8, C3-C6 hepcidin variant (see Example 9), hepcidin 20 (N-terminally truncated, see Example 9) and linear hepcidin (Example 9). 1 nM solutions of antibody (2.41, 2.7, 43, and R9) were preincubated with 10 nM of each antigen at room temperature for several hours before run through the immobilized hepcidin surface. The binding signal obtained was proportional to the concentration of free antibody in solution at equilibrium.
(§4) Some antibodies require the five amino acids at the N-terminus of the molecule (e.g. Ab43 and to a lesser extent, R9).

[2] = target: T2, mature human hepcidin (SEQ ID NO: 9) (Homo sapiens, UniProt P81172); assay: as above; conditions: interpretation of Table 6; remark: listed apart in the source
T2 construct: made in house; host or cells: recombinant
T2 sequence (P81172 60-84): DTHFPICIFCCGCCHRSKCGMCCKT
Description: as §1, §2, §3, §4

[3] = test system: mature human hepcidin (SEQ ID NO: 9); assay: as above
Description: as §1, §2, §3, §4

synthetic human hepcidin = target: T3, synthetic human hepcidin (Homo sapiens, UniProt P81172); assay: Iron-responsive beta-lactamase assay in 293/Fpn/BLA cells; type: cell-based; conditions: 50 ng/mL synthetic human hepcidin, 2.5 ug/mL ferric citrate, read-out: EC50, decreased intracellular concentration of iron
T3 construct: made in house; host or cells: chemical synthesis (Fmoc solid phase), oxidatively folded
T3 sequence (P81172 60-84 limits assumed): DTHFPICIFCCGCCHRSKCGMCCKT
Description: The effect of anti-human hepcidin antibodies on this hepcidin-mediated iron sequestration was evaluated in vitro. […] These 293/Fpn/BLA cells, taken from a 70-80% confluent culture, were plated at 2.8×10^5 cells/mL in DMEM (Invitrogen Cat#11965) 5% FBS (Invitrogen Cat#10099-141) PSQ (Invitrogen Cat#10378-016), 90 uL/well (25,000 cells/well) in BioCoat Poly-D Lysine coated plates (Becton-Dickinson Cat#35-6640) and incubated at 37C with 5% CO2. At the end of the same day, a solution of assay medium (DMEM 5% FBS PSQ) with 100 ug/mL doxycycline was made, 10 uL/well of it added to the plate, and the plate incubated overnight or for at least 20 hours. […] Mixtures were added at 100 uL/well and incubated overnight at 37C, 5% CO2 in a cell culture incubator. Plates were then removed from the incubator and equilibrated to room temperature for 10 minutes before adding 20 uL/well of the prepared Invitrogen GeneBlazer CCF4 A/M development reagent (Invitrogen Kit# K1085) and incubating for 90 minutes in the dark. Development reagent was also added to 16 wells of a control assay plate without cells containing 100 uL assay medium (DMEM 5% FBS PSQ) and incubated for the same time. Blue & Green fluorescence signals were then read on an Envision Multilabel Reader (Perkin-Elmer Inc.) by exciting at 409 nm and reading emissions at 447 nm (blue) and 520 nm (green).

rcyno hepcidin, sequence (as listed by the source): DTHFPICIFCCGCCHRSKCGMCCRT

B1: Antibody Ab43: murine anti-human hepcidin monoclonal antibody generated by viral immunization; CDRs SEQ ID NOs: 16-21 (antibody, V domains shown)
VH: QIQLVQSGPELKKPGETVKISCKASGYTFTTYGMSWVKQAPGKGLKWMGWINTYSGVPTYADDFKGRFAFSLETSASTAYLQINNLKNEDTATYFCASLWYYGRAFDYWGQGTTLTVSS
VL: NIVLTQSPASLAVSLGQRATISCRASESVDSYGNSFMHWYQQKPGQPPKLLIYLASNLESGVPARFSGSGSRTDFTLTIDPVEADDAATYYCQQNNEDRTFGGGTKLEIK
Rcyno hepcidin
  binding affinity to rcyno hepcidin: significant binding affinity
[1]
  Binding to Solution Epitopes, Hepc20: − (100% antibody binding to the hepcidin surface and therefore no inhibition by hepcidin in solution)
[2]
  Binding to Solution Epitopes, Folded Hepcidin: ++++ (0% antibody binding to the hepcidin surface and therefore 100% inhibition by hepcidin in solution)
[3]; 1 nM antibody preincubated with 10 nM C1-C8, C3-C6 hepcidin variant
  Binding to Hepcidin Surface, C1-C8 C3-C6: 25%
[3]; interpretation of Table 6
  Binding to Solution Epitopes, Linear Hepcidin: − (100% antibody binding to the hepcidin surface and therefore no inhibition by hepcidin in solution)
Synthetic human hepcidin
  EC50: 13.8 nM
